The experiment addresses plasma purified human complement protein C3 (human) (UniProt P01024). The experiment in a line: cell-based or functional assay.

Chain of plasma purified human complement protein C3 (human) (P01024 23-667, chain 1 of 2): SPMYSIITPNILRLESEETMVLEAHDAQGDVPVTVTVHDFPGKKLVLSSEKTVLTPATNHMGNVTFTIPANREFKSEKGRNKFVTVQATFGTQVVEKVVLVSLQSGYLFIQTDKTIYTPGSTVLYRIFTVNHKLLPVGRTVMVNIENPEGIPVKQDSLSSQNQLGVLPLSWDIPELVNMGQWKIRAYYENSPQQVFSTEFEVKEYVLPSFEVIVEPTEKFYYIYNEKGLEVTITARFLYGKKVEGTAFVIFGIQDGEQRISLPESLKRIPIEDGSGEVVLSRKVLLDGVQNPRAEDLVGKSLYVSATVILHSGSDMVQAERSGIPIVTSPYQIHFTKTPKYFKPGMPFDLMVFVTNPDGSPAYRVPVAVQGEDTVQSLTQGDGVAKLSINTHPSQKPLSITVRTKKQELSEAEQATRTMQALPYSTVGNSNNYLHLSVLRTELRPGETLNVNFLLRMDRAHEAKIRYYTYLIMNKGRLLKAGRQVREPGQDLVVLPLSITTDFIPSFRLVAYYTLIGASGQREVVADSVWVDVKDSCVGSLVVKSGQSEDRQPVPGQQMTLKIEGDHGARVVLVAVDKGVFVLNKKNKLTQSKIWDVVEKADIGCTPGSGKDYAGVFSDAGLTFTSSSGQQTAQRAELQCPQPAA
Chain of plasma purified human complement protein C3 (human) (P01024 672-1663, chain 2 of 2): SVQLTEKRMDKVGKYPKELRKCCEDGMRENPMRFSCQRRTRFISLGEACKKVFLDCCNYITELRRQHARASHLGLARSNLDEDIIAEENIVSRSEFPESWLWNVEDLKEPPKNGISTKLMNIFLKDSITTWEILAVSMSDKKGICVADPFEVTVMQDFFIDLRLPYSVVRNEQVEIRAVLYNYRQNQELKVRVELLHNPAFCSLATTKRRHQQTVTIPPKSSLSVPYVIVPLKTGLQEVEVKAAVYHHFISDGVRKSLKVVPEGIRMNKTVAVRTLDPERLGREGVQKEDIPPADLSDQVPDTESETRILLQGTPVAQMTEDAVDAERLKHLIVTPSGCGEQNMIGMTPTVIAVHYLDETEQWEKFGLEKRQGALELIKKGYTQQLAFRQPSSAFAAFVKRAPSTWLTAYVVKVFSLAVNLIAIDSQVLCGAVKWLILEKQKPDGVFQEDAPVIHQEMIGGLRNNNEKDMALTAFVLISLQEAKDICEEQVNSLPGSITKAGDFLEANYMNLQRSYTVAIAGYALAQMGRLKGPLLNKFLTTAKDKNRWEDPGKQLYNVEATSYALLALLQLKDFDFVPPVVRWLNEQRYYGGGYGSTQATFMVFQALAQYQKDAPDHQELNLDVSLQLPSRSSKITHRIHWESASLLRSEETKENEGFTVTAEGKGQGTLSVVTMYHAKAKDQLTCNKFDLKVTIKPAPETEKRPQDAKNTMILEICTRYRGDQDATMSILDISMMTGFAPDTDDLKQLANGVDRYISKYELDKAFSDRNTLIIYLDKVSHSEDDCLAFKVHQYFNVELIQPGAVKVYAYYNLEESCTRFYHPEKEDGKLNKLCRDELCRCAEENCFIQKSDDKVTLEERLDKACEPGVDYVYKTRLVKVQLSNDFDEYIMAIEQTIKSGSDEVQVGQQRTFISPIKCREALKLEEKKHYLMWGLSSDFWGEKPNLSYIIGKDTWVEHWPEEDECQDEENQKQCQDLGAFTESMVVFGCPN

B1: MTSP-1 protease domain Q38H/I41S/D60bT/F60eS/Y60gW/D96K/F97G/F99L/C122S/G151H/Q175L/Q192D (enzyme)
chain: VVGGTDADEGEWPWQVSLHALGHGHSCGASLISPNWLVSAAHCYIDTRGSRWSDPTQWTAFLGLHDQSQRSAPGVQERRLKRIISHPFFNKGTLDYDIALLELEKPAEYSSMVRPISLPDASHVFPAGKAIWVTGWGHTQYGGTHALILQKGEIRVINQTTCENLLPQLITPRMMCVGFLSGGVDSCDGDSGGPLSSVEADGRIFQAGVVSWGDGCAQRNKPGVYTRLPLFRDWIKENTGV
On to B1, for which the EC50 hC3 cleavage turned out to be 7.34 nM.

B2: MTSP-1 protease domain I41S/ins97aV/C122S/Q192D (enzyme)
chain: VVGGTDADEGEWPWQVSLHALGQGHSCGASLISPNWLVSAAHCYIDDRGFRYSDPTQWTAFLGLHDQSQRSAPGVQERRLKRIISHPFFNDFVTFDYDIALLELEKPAEYSSMVRPISLPDASHVFPAGKAIWVTGWGHTQYGGTGALILQKGEIRVINQTTCENLLPQQITPRMMCVGFLSGGVDSCDGDSGGPLSSVEADGRIFQAGVVSWGDGCAQRNKPGVYTRLPLFRDWIKENTGV
B2 came in with an EC50 hC3 cleavage of 336 nM.

B3: MTSP-1 protease domain I41A/ins97aY/F99L/C122S/Q175R/Q192H (enzyme)
chain: VVGGTDADEGEWPWQVSLHALGQGHACGASLISPNWLVSAAHCYIDDRGFRYSDPTQWTAFLGLHDQSQRSAPGVQERRLKRIISHPFFNDFYTLDYDIALLELEKPAEYSSMVRPISLPDASHVFPAGKAIWVTGWGHTQYGGTGALILQKGEIRVINQTTCENLLPQRITPRMMCVGFLSGGVDSCHGDSGGPLSSVEADGRIFQAGVVSWGDGCAQRNKPGVYTRLPLFRDWIKENTGV
On to B3, for which the EC50 hC3 cleavage stood at 14.8 nM.

B4: MTSP-1 protease domain I41A/Y60gW/ins97aE/F99L/C122S/Q175M/Q192T (enzyme)
chain: VVGGTDADEGEWPWQVSLHALGQGHACGASLISPNWLVSAAHCYIDDRGFRWSDPTQWTAFLGLHDQSQRSAPGVQERRLKRIISHPFFNDFETLDYDIALLELEKPAEYSSMVRPISLPDASHVFPAGKAIWVTGWGHTQYGGTGALILQKGEIRVINQTTCENLLPQMITPRMMCVGFLSGGVDSCTGDSGGPLSSVEADGRIFQAGVVSWGDGCAQRNKPGVYTRLPLFRDWIKENTGV
Consider B4, for which the EC50 hC3 cleavage came out at 8.9 nM.

B5: MTSP-1 protease domain I41S/F97G/ins97aA/T98L/C122S/Q192A (enzyme)
chain: VVGGTDADEGEWPWQVSLHALGQGHSCGASLISPNWLVSAAHCYIDDRGFRYSDPTQWTAFLGLHDQSQRSAPGVQERRLKRIISHPFFNDGALFDYDIALLELEKPAEYSSMVRPISLPDASHVFPAGKAIWVTGWGHTQYGGTGALILQKGEIRVINQTTCENLLPQQITPRMMCVGFLSGGVDSCAGDSGGPLSSVEADGRIFQAGVVSWGDGCAQRNKPGVYTRLPLFRDWIKENTGV
As for B5, the EC50 hC3 cleavage stood at 6.75 nM.

B6: MTSP-1 protease domain I41T/ins97aA/F99Y/C122S/Q175L/Q192A (enzyme)
chain: VVGGTDADEGEWPWQVSLHALGQGHTCGASLISPNWLVSAAHCYIDDRGFRYSDPTQWTAFLGLHDQSQRSAPGVQERRLKRIISHPFFNDFATYDYDIALLELEKPAEYSSMVRPISLPDASHVFPAGKAIWVTGWGHTQYGGTGALILQKGEIRVINQTTCENLLPQLITPRMMCVGFLSGGVDSCAGDSGGPLSSVEADGRIFQAGVVSWGDGCAQRNKPGVYTRLPLFRDWIKENTGV
As for B6, the EC50 hC3 cleavage worked out at 28 nM.

B7: MTSP-1 Q38H/I41S/F60eS/Y60gW/D96K/F97G/ins97aV/T98P/F99L/C122S/G151H/Q175L/Q192D (enzyme)
chain: VVGGTDADEGEWPWQVSLHALGHGHSCGASLISPNWLVSAAHCYIDDRGSRWSDPTQWTAFLGLHDQSQRSAPGVQERRLKRIISHPFFNKGVPLDYDIALLELEKPAEYSSMVRPISLPDASHVFPAGKAIWVTGWGHTQYGGTHALILQKGEIRVINQTTCENLLPQLITPRMMCVGFLSGGVDSCDGDSGGPLSSVEADGRIFQAGVVSWGDGCAQRNKPGVYTRLPLFRDWIKENTGV
B7 came in with an EC50 of hC3 cleavage of 13.1 nM.

B8: MTSP-1 protease domain I41T/F97R/ins97aV/T98L/C122S/Q192S (enzyme)
chain: VVGGTDADEGEWPWQVSLHALGQGHTCGASLISPNWLVSAAHCYIDDRGFRYSDPTQWTAFLGLHDQSQRSAPGVQERRLKRIISHPFFNDRVLFDYDIALLELEKPAEYSSMVRPISLPDASHVFPAGKAIWVTGWGHTQYGGTGALILQKGEIRVINQTTCENLLPQQITPRMMCVGFLSGGVDSCSGDSGGPLSSVEADGRIFQAGVVSWGDGCAQRNKPGVYTRLPLFRDWIKENTGV
In the case of B8, the EC50 hC3 cleavage turned out to be 13.2 nM.

B9: MTSP-1 Q38H/I41S/D60bT/Y60gW/D96K/F97G/ins97aV/T98P/F99L/C122S/G151H/Q175L/Q192D (enzyme)
chain: VVGGTDADEGEWPWQVSLHALGHGHSCGASLISPNWLVSAAHCYIDTRGFRWSDPTQWTAFLGLHDQSQRSAPGVQERRLKRIISHPFFNKGVPLDYDIALLELEKPAEYSSMVRPISLPDASHVFPAGKAIWVTGWGHTQYGGTHALILQKGEIRVINQTTCENLLPQLITPRMMCVGFLSGGVDSCDGDSGGPLSSVEADGRIFQAGVVSWGDGCAQRNKPGVYTRLPLFRDWIKENTGV
B9 came in with an EC50 of hC3 cleavage of 8.64 nM.

B10: MTSP-1 protease domain I41S/F97A/ins97aV/T98L/C122S/Q192A (enzyme)
chain: VVGGTDADEGEWPWQVSLHALGQGHSCGASLISPNWLVSAAHCYIDDRGFRYSDPTQWTAFLGLHDQSQRSAPGVQERRLKRIISHPFFNDAVLFDYDIALLELEKPAEYSSMVRPISLPDASHVFPAGKAIWVTGWGHTQYGGTGALILQKGEIRVINQTTCENLLPQQITPRMMCVGFLSGGVDSCAGDSGGPLSSVEADGRIFQAGVVSWGDGCAQRNKPGVYTRLPLFRDWIKENTGV
In turn, B10 showed an EC50 hC3 cleavage of 5.3 nM.

B11: MTSP-1 protease domain I41D/C122S/G151N/Q192T/D217E (enzyme)
chain: VVGGTDADEGEWPWQVSLHALGQGHDCGASLISPNWLVSAAHCYIDDRGFRYSDPTQWTAFLGLHDQSQRSAPGVQERRLKRIISHPFFNDFTFDYDIALLELEKPAEYSSMVRPISLPDASHVFPAGKAIWVTGWGHTQYGGTNALILQKGEIRVINQTTCENLLPQQITPRMMCVGFLSGGVDSCTGDSGGPLSSVEADGRIFQAGVVSWGEGCAQRNKPGVYTRLPLFRDWIKENTGV
In the case of B11, the EC50 hC3 cleavage amounted to 34.2 nM.

B12: MTSP-1 protease domain Y59F/C122S/G151N/Q192T (enzyme)
chain: VVGGTDADEGEWPWQVSLHALGQGHICGASLISPNWLVSAAHCFIDDRGFRYSDPTQWTAFLGLHDQSQRSAPGVQERRLKRIISHPFFNDFTFDYDIALLELEKPAEYSSMVRPISLPDASHVFPAGKAIWVTGWGHTQYGGTNALILQKGEIRVINQTTCENLLPQQITPRMMCVGFLSGGVDSCTGDSGGPLSSVEADGRIFQAGVVSWGDGCAQRNKPGVYTRLPLFRDWIKENTGV
The molecule B12 yielded an EC50 hC3 cleavage of 288 nM.

B13: MTSP-1 protease domain I41E/F97L/F99L/C122S/Q192A (enzyme)
chain: VVGGTDADEGEWPWQVSLHALGQGHECGASLISPNWLVSAAHCYIDDRGFRYSDPTQWTAFLGLHDQSQRSAPGVQERRLKRIISHPFFNDLTLDYDIALLELEKPAEYSSMVRPISLPDASHVFPAGKAIWVTGWGHTQYGGTGALILQKGEIRVINQTTCENLLPQQITPRMMCVGFLSGGVDSCAGDSGGPLSSVEADGRIFQAGVVSWGDGCAQRNKPGVYTRLPLFRDWIKENTGV
Regarding B13, the EC50 hC3 cleavage is 47.4 nM.

B14: MTSP-1 protease domain I41S/F97L/F99L/C122S/Q192S (enzyme)
chain: VVGGTDADEGEWPWQVSLHALGQGHSCGASLISPNWLVSAAHCYIDDRGFRYSDPTQWTAFLGLHDQSQRSAPGVQERRLKRIISHPFFNDLTLDYDIALLELEKPAEYSSMVRPISLPDASHVFPAGKAIWVTGWGHTQYGGTGALILQKGEIRVINQTTCENLLPQQITPRMMCVGFLSGGVDSCSGDSGGPLSSVEADGRIFQAGVVSWGDGCAQRNKPGVYTRLPLFRDWIKENTGV
Molecule B14 gave an EC50 hC3 cleavage of 19.1 nM.

B15: MTSP-1 protease domain I41S/F97D/F99L/C122S/Q192V (enzyme)
chain: VVGGTDADEGEWPWQVSLHALGQGHSCGASLISPNWLVSAAHCYIDDRGFRYSDPTQWTAFLGLHDQSQRSAPGVQERRLKRIISHPFFNDDTLDYDIALLELEKPAEYSSMVRPISLPDASHVFPAGKAIWVTGWGHTQYGGTGALILQKGEIRVINQTTCENLLPQQITPRMMCVGFLSGGVDSCVGDSGGPLSSVEADGRIFQAGVVSWGDGCAQRNKPGVYTRLPLFRDWIKENTGV
Consider B15, for which the EC50 hC3 cleavage is 31 nM.

B16: MTSP-1 protease domain I41G/Y60gW/F99L/C122S/Q175R/Q192S (enzyme)
chain: VVGGTDADEGEWPWQVSLHALGQGHGCGASLISPNWLVSAAHCYIDDRGFRWSDPTQWTAFLGLHDQSQRSAPGVQERRLKRIISHPFFNDFTLDYDIALLELEKPAEYSSMVRPISLPDASHVFPAGKAIWVTGWGHTQYGGTGALILQKGEIRVINQTTCENLLPQRITPRMMCVGFLSGGVDSCSGDSGGPLSSVEADGRIFQAGVVSWGDGCAQRNKPGVYTRLPLFRDWIKENTGV
Take B16: the EC50 hC3 cleavage was 6.95 nM.

B17: MTSP-1 protease domain I41S/F97V/T98N/F99L/C122S/Q192S (enzyme)
chain: VVGGTDADEGEWPWQVSLHALGQGHSCGASLISPNWLVSAAHCYIDDRGFRYSDPTQWTAFLGLHDQSQRSAPGVQERRLKRIISHPFFNDVNLDYDIALLELEKPAEYSSMVRPISLPDASHVFPAGKAIWVTGWGHTQYGGTGALILQKGEIRVINQTTCENLLPQQITPRMMCVGFLSGGVDSCSGDSGGPLSSVEADGRIFQAGVVSWGDGCAQRNKPGVYTRLPLFRDWIKENTGV
On to B17, for which the EC50 hC3 cleavage came to 29.4 nM.

B18: MTSP-1 protease domain I41A/Y60gW/D96F/F97G/F99M/C122S/Q175W/Q192A (enzyme)
chain: VVGGTDADEGEWPWQVSLHALGQGHACGASLISPNWLVSAAHCYIDDRGFRWSDPTQWTAFLGLHDQSQRSAPGVQERRLKRIISHPFFNFGTMDYDIALLELEKPAEYSSMVRPISLPDASHVFPAGKAIWVTGWGHTQYGGTGALILQKGEIRVINQTTCENLLPQWITPRMMCVGFLSGGVDSCAGDSGGPLSSVEADGRIFQAGVVSWGDGCAQRNKPGVYTRLPLFRDWIKENTGV
With B18, the EC50 hC3 cleavage amounted to 4.06 nM.

B19: MTSP-1 protease domain D96E/C122S/G151N/Q192T (enzyme)
chain: VVGGTDADEGEWPWQVSLHALGQGHICGASLISPNWLVSAAHCYIDDRGFRYSDPTQWTAFLGLHDQSQRSAPGVQERRLKRIISHPFFNEFTFDYDIALLELEKPAEYSSMVRPISLPDASHVFPAGKAIWVTGWGHTQYGGTNALILQKGEIRVINQTTCENLLPQQITPRMMCVGFLSGGVDSCTGDSGGPLSSVEADGRIFQAGVVSWGDGCAQRNKPGVYTRLPLFRDWIKENTGV
B19 returned an EC50 hC3 cleavage of 298 nM.

B20: MTSP-1 protease domain I41S/F97del/T98S/F99L/C122S/Q192S (enzyme)
chain: VVGGTDADEGEWPWQVSLHALGQGHSCGASLISPNWLVSAAHCYIDDRGFRYSDPTQWTAFLGLHDQSQRSAPGVQERRLKRIISHPFFNDSLDYDIALLELEKPAEYSSMVRPISLPDASHVFPAGKAIWVTGWGHTQYGGTGALILQKGEIRVINQTTCENLLPQQITPRMMCVGFLSGGVDSCSGDSGGPLSSVEADGRIFQAGVVSWGDGCAQRNKPGVYTRLPLFRDWIKENTGV
Molecule B20 gave an EC50 hC3 cleavage of 23.2 nM.
